Assay results: patent publication US20040072238A1 (Kyowa Kirin, published 2004)

Columns and labels:
human insulin (Sigma) = target: T1, human insulin (Sigma) (human, UniProt P01308 25-54; P01308 90-110); assay: far-Western: COS-1 cell lysate on PVDF membrane, probed with human insulin, detected with anti-human insulin polyclonal antibody
T1 construct: Bought reagent
Method: (§1) To investigate the binding affinity of the proteins encoded by C-hsi13412 and C-kaia397 to IGF, analysis by far-Western (Molecular Cloning—A Laboratory Manual, Third Edition, Cold Spring Harbor Laboratory; Protein Experiment Protocol 1, Shujunsha) was carried out using the cell lysates of COS-1/C-hsi13412 cell line, COS-1/C-kaia397, and, as a control, COS-1/mock cell line obtained in Example 8.
(§2) A 5 μl aliquot of the cell lysates of COS-1/mock cell line, COS-1/C-hsi13412 cell line, and COS-1/C-kaia397 cell line was placed into each lane, and according to Example 14, SDS-PAGE was carried out, transferred to a PVDF membrane, and then blocked. Subsequently, 2 μg/ml human IGF-I (Peprotech), 2 μg/ml human IGF-II (Peprotech), or 2 μg/ml of human insulin (Sigma) diluted with the blocking solution was enclosed with the membrane, and was allowed to react at room temperature overnight. Next, anti-human IGF-I monoclonal antibody (Upstate Biotechnology), anti-human IGF-II monoclonal antibody (Upstate Biotechnology), or anti-human insulin polyclonal antibody (Santa Cruz) were added to each of the membranes to a concentration of 2 μg/ml, and was left standing at room temperature for 1 hour. After the membrane was washed well with Tween-TBS, detection was carried out using peroxiase-labeled rabbit anti-mouse immunoglobulin (DAKO) diluted 2,000 times as the secondary antibody.

human IGF-II (Peprotech) = target: T2, human IGF-II (Peprotech) (human, UniProt P01344 25-91); assay: far-Western: COS-1 cell lysate on PVDF membrane, probed with 2 µg/ml human IGF-II, detected with anti-human IGF-II monoclonal antibody
T2 construct: Bought reagent; also called IGF-2
T2 sequence (P01344 25-91 limits assumed): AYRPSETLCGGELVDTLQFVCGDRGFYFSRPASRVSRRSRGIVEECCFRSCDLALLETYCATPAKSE
Method: as §1, §2

human IGF-I (Peprotech) = target: T3, human IGF-I (Peprotech) (human, UniProt P05019 49-118); assay: far-Western: COS-1 cell lysate on PVDF membrane, probed with 2 µg/ml human IGF-I, detected with anti-human IGF-I monoclonal antibody
T3 construct: Bought reagent; also called IGF-1
T3 sequence (P05019 49-118 limits assumed): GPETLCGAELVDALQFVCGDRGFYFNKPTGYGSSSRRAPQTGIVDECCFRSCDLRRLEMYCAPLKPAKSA
Method: as §1, §2

T1 sequence (P01308 25-54 limits assumed, chain 1 of 2): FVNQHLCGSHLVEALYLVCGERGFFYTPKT
T1 sequence (P01308 90-110 limits assumed, chain 2 of 2): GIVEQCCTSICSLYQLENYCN

binding result (human insulin (Sigma)): no binding (tested: 2 µg/ml) | binding result (human IGF-II (Peprotech)): binds | binding result (human IGF-I (Peprotech)): binds
B1: protein encoded by C-kaia397 with FLAG marker peptide at the C-terminus, expressed in COS-1 cells (COS-1/C-kaia397 cell line) (other, not shown: small tags and cut ends)
chain: RPSPGPDYLRRGWMRLLAEGEGCAPCRPEECAAPRGCLAGRVRDAGGCCWECANLEGQLCDLDPSAHFYGHCGEQLECRLDTGGDLSRGEVPEPLCACRSQSPLCGSDGHTYSQICRLQEAARARPDANLTVAHPGPCESDWMPLLGHAILRPPAFTPRAPDRVTSI
notes: Tested as COS-1 cell lysate or culture supernatant, not purified
